{"source": "paper PMC3653948", "about": "“PDZ Domain-Mediated Interactions of G Protein-Coupled Receptors with Postsynaptic Density Protein 95: Quantitative Characterization of Interactions” (PLoS ONE, 2013)", "binders": {"B1": {"name": "CRIPT C-tail peptide (human), unlabeled (peptide)", "peptide": "LDTKNYKQTSV", "notes": "No YDDR/DDR linker is told for this peptide"}, "B2": {"name": "GluN2B C-tail peptide (human), unlabeled (peptide)", "peptide": "YEKLSSIESDV", "notes": "No YDDR/DDR linker is told for this peptide; also called NR2B"}, "B3": {"name": "KIF1Bα C-tail peptide (human), unlabeled (peptide)", "peptide": "YDDRNLKAGRETTV", "notes": "N-terminal linker (solubility, concentration determination); YDDR because the C-tail has no Tyr or Trp, by the rule of the methods; source: synthetic peptide (Schafer-N)"}, "B4": {"name": "BAI1 C-tail peptide (human) (peptide)", "peptide": "YDDRQDIIDLQTEV", "notes": "N-terminal linker; YDDR because the C-tail has no Tyr or Trp, by the rule of the methods; BAI1 receptor, human, 10 C-terminal aa; also called BAI1 receptor; source: synthetic peptide (Schafer-N)"}, "B5": {"name": "SSTR3 C-tail peptide (human) (peptide)", "peptide": "DDRKSSTMRISYL", "notes": "N-terminal linker; DDR (Tyr omitted) because the C-tail contains Tyr, by the rule of the methods; somatostatin receptor 3, human, 10 C-terminal aa; source: synthetic peptide (Schafer-N)"}, "B6": {"name": "5-HTR2C C-tail peptide (human) (peptide)", "peptide": "YDDRSVVSERISSV", "notes": "N-terminal linker; YDDR because the C-tail has no Tyr or Trp, by the rule of the methods; 5-hydroxytryptamine receptor 2C, human, 10 C-terminal aa; source: synthetic peptide (Schafer-N)"}, "B7": {"name": "β1AR C-tail peptide (human) (peptide)", "peptide": "YDDRRPGFASESKV", "notes": "N-terminal linker; YDDR because the C-tail has no Tyr or Trp, by the rule of the methods; β1-adrenergic receptor, human, 10 C-terminal aa; also called β1-adrenergic receptor; source: synthetic peptide (Schafer-N)"}, "B8": {"name": "β2AR C-tail peptide (human) (peptide)", "peptide": "YDDRRNCSTNDSLL", "notes": "N-terminal linker; YDDR because the C-tail has no Tyr or Trp, by the rule of the methods; β2-adrenergic receptor, human, 10 C-terminal aa; source: synthetic peptide (Schafer-N)"}, "B9": {"name": "5-HTR2A C-tail peptide (human) (peptide)", "peptide": "YDDRDGVNEKVSCV", "notes": "N-terminal linker; YDDR because the C-tail has no Tyr or Trp, by the rule of the methods; 5-hydroxytryptamine receptor 2A, human, 10 C-terminal aa; also called 5-hydroxytryptamine receptor 2A; source: synthetic peptide (Schafer-N)"}, "B10": {"name": "SSTR1 C-tail peptide (human) (peptide)", "peptide": "YDDRGTCTSRITTL", "notes": "N-terminal linker; YDDR because the C-tail has no Tyr or Trp, by the rule of the methods; somatostatin receptor 1, human, 10 C-terminal aa; also called hSSTR1; source: synthetic peptide (Schafer-N)"}, "B11": {"name": "SSTR1 C-tail peptide (mouse) (peptide)", "peptide": "YDDRGTCASRISTL", "notes": "N-terminal linker; YDDR because the C-tail has no Tyr or Trp, by the rule of the methods; somatostatin receptor 1, mouse, 10 C-terminal aa; also called mSSTR1; source: synthetic peptide (Schafer-N)"}}, "note": "Ends that are not written are not given here."}
{"target": "T1, PSD-95 PDZ3 (aa 309-401) (UniProt P78352 309-401)", "T1 construct": "postsynaptic density protein 95 (PSD-95), PDZ3, aa 309-401", "assay": "fluorescence polarisation; competition: 25 nM Cy5-labeled probe (Cy5-KIF1Bα for PDZ1, Cy5-GluN2B for PDZ2, Cy5-CRIPT for PDZ3), constant PDZ protein at the probe's Kd, twofold dilution series of unlabeled peptide (typically 1–512 µM); 10 mM HEPES pH 7.4, 150 mM NaCl, 1% BSA, room temperature; Ki calculated from IC50", "conditions": "both partners purified", "units": {"Ki": "µM"}}
{"binder": "B1", "Ki": 2.9}
{"binder": "B2", "Ki": "> 1000"}
{"binder": "B3", "Ki": 14}
{"target": "T2, PSD-95 PDZ2 (aa 155-249) (UniProt P78352 155-249)", "T2 construct": "postsynaptic density protein 95 (PSD-95), PDZ2, aa 155-249", "assay": "fluorescence polarisation; competition: 25 nM Cy5-labeled probe (Cy5-KIF1Bα for PDZ1, Cy5-GluN2B for PDZ2, Cy5-CRIPT for PDZ3), constant PDZ protein at the probe's Kd, twofold dilution series of unlabeled peptide (typically 1–512 µM); 10 mM HEPES pH 7.4, 150 mM NaCl, 1% BSA, room temperature; Ki calculated from IC50", "conditions": "both partners purified", "units": {"Ki": "µM"}}
{"binder": "B2", "Ki": 5.5}
{"binder": "B3", "Ki": 3.8}
{"target": "T3, PSD-95 PDZ1 (aa 61-151) (UniProt P78352 61-151)", "T3 construct": "postsynaptic density protein 95 (PSD-95), PDZ1, aa 61-151", "assay": "fluorescence polarisation; competition: 25 nM Cy5-labeled probe (Cy5-KIF1Bα for PDZ1, Cy5-GluN2B for PDZ2, Cy5-CRIPT for PDZ3), constant PDZ protein at the probe's Kd, twofold dilution series of unlabeled peptide (typically 1–512 µM); 10 mM HEPES pH 7.4, 150 mM NaCl, 1% BSA, room temperature; Ki calculated from IC50", "conditions": "both partners purified", "units": {"Ki": "µM"}}
{"binder": "B2", "Ki": 29}
{"binder": "B3", "Ki": 7}
{"target": "T1, PSD-95 PDZ3 (aa 309-401)", "assay": "SPR; PDZ domain immobilised by amine coupling (CM5 for PDZ1 and PDZ2, CM4 for PDZ3), peptides injected; Biacore X100, 25.0°C, HBS-EP+ (10 mM HEPES pH 7.4, 150 mM NaCl, 3 mM EDTA, 0.05% Surfactant P-20); 1 mM DTT for peptides with a cysteine; Kd from steady-state responses, 1:1 model with a linear component", "conditions": "both partners purified", "units": {"Kd": "µM"}}
{"binder": "B1", "Kd": 1.5}
{"binder": "B4", "Kd": 2400}
{"binder": "B5", "Kd": 240}
{"binder": "B6", "Kd": 780}
{"binder": "B7", "Kd": 400}
{"target": "T2, PSD-95 PDZ2 (aa 155-249)", "assay": "SPR; PDZ domain immobilised by amine coupling (CM5 for PDZ1 and PDZ2, CM4 for PDZ3), peptides injected; Biacore X100, 25.0°C, HBS-EP+ (10 mM HEPES pH 7.4, 150 mM NaCl, 3 mM EDTA, 0.05% Surfactant P-20); 1 mM DTT for peptides with a cysteine; Kd from steady-state responses, 1:1 model with a linear component", "conditions": "both partners purified", "units": {"Kd": "µM"}}
{"binder": "B4", "Kd": 74}
{"binder": "B8", "Kd": 2090}
{"binder": "B9", "Kd": 110}
{"binder": "B10", "Kd": 76}
{"binder": "B6", "Kd": 62}
{"binder": "B2", "Kd": 1.4}
{"binder": "B3", "Kd": 1.1}
{"binder": "B7", "Kd": 180}
{"target": "T3, PSD-95 PDZ1 (aa 61-151)", "assay": "SPR; PDZ domain immobilised by amine coupling (CM5 for PDZ1 and PDZ2, CM4 for PDZ3), peptides injected; Biacore X100, 25.0°C, HBS-EP+ (10 mM HEPES pH 7.4, 150 mM NaCl, 3 mM EDTA, 0.05% Surfactant P-20); 1 mM DTT for peptides with a cysteine; Kd from steady-state responses, 1:1 model with a linear component", "conditions": "both partners purified", "units": {"Kd": "µM"}}
{"binder": "B4", "Kd": 120}
{"binder": "B9", "Kd": 630}
{"binder": "B10", "Kd": 84}
{"binder": "B6", "Kd": 160}
{"binder": "B3", "Kd": 2.2}
{"binder": "B11", "Kd": 270}
{"target": "T4, PSD-95 PDZ2 (aa 155–249) (UniProt P78352 155-249)", "T4 construct": "postsynaptic density protein 95 (PSD-95), PDZ2, aa 155–249; also called isolated PDZ2", "assay": "fluorescence polarisation; competition: 25 nM Cy5-labeled probe and a constant concentration of PDZ protein corresponding to the K d of the probe, twofold dilution series of unlabeled peptide (typically 1–512 µM); 10 mM HEPES pH 7.4, 150 mM NaCl, 1% BSA; room temperature; K i calculated from the IC50", "conditions": "both partners purified", "units": {"Ki": "µM"}}
{"binder": "RDYKQSSSTL-OH (not fully specified)", "note": "[metabotropic glutamate receptor mGlu1(a) C-tail peptide, human]", "Ki": "> 1000"}
{"binder": "RNCSTNDSLL-OH (not fully specified)", "note": "[β2-adrenergic receptor (β2AR) C-tail peptide, human]", "Ki": 720}
{"binder": "KYVSYNNLVI-OH (not fully specified)", "note": "[metabotropic glutamate receptor mGlu7(a) C-tail peptide, human]", "Ki": "> 1000"}
{"target": "PSD-95 PDZ1 (aa 61–151) (UniProt P78352 61-151)", "assay": "fluorescence polarisation; competition: 25 nM Cy5-labeled probe and a constant concentration of PDZ protein corresponding to the K d of the probe, twofold dilution series of unlabeled peptide (typically 1–512 µM); 10 mM HEPES pH 7.4, 150 mM NaCl, 1% BSA; room temperature; K i calculated from the IC50", "conditions": "both partners purified", "units": {"Ki": "µM"}}
{"binder": "RDYKQSSSTL-OH (not fully specified)", "note": "[metabotropic glutamate receptor mGlu1(a) C-tail peptide, human]", "Ki": 830}
{"binder": "RNCSTNDSLL-OH (not fully specified)", "note": "[β2-adrenergic receptor (β2AR) C-tail peptide, human]", "Ki": "> 1000"}
{"binder": "KYVSYNNLVI-OH (not fully specified)", "note": "[metabotropic glutamate receptor mGlu7(a) C-tail peptide, human]", "Ki": 610}
{"target": "T5, PSD-95 PDZ3 (aa 309–401) (UniProt P78352 309-401)", "T5 construct": "postsynaptic density protein 95 (PSD-95), PDZ3, aa 309–401", "assay": "fluorescence polarisation; competition: 25 nM Cy5-labeled probe and a constant concentration of PDZ protein corresponding to the K d of the probe, twofold dilution series of unlabeled peptide (typically 1–512 µM); 10 mM HEPES pH 7.4, 150 mM NaCl, 1% BSA; room temperature; K i calculated from the IC50", "conditions": "both partners purified", "units": {"Ki": "µM"}}
{"binder": "RDYKQSSSTL-OH (not fully specified)", "note": "[metabotropic glutamate receptor mGlu1(a) C-tail peptide, human]", "Ki": "> 1000"}
{"binder": "RNCSTNDSLL-OH (not fully specified)", "note": "[β2-adrenergic receptor (β2AR) C-tail peptide, human]", "Ki": "> 1000"}
{"binder": "KYVSYNNLVI-OH (not fully specified)", "note": "[metabotropic glutamate receptor mGlu7(a) C-tail peptide, human]", "Ki": "> 1000"}
